# Data: patent publication US20230407373A1 (priority 2020, published 2023)
# B1: ZNF622 (protein, UniProt Q969S3 2-477, looked up)
# Cytoplasmic 60S subunit …: ATYTCITCRVAFRDADMQRAHYKTDWHRYNLRRKVASMAPVTAEGFQERVRAQRAVAEEESKGSATYCTVCSKKFASFNAYENHLKSRRHVELEKKAVQAVNRKVEMMNEKNLEKGLGVDSVDKDAMNAAIQQAIKAQPSMSPKKAPPAPAKEARNVVAVGTGGRGTHDRDPSEKPPRLQWFEQQAKKLAKQQEEDSEEEEEDLDGDDWEDIDSDEELECEDTEAMDDVVEQDAEEEEAEEGPPLGAIPITDCLFCSHHSSSLMKNVAHMTKDHSFFIPDIEYLSDIKGLIKYLGEKVGVGKICLWCNEKGKSFYSTEAVQAHMNDKSHCKLFTDGDAALEFADFYDFRSSYPDHKEGEDPNKAEELPSEKNLEYDDETMELILPSGARVGHRSLMRYYKQRFGLSRAVAVAKNRKAVGRVLQQYRALGWTGSTGAALMRERDMQYVQRMKSKWMLKTGMKNNATKQMHFRVQVRF
# B2: EEF1A2 (protein, UniProt Q05639 2-463, looked up)
# Elongation factor 1-alpha 2: GKEKTHINIVVIGHVDSGKSTTTGHLIYKCGGIDKRTIEKFEKEAAEMGKGSFKYAWVLDKLKAERERGITIDISLWKFETTKYYITIIDAPGHRDFIKNMITGTSQADCAVLIVAAGVGEFEAGISKNGQTREHALLAYTLGVKQLIVGVNKMDSTEPAYSEKRYDEIVKEVSAYIKKIGYNPATVPFVPISGWHGDNMLEPSPNMPWFKGWKVERKEGNASGVSLLEALDTILPPTRPTDKPLRLPLQDVYKIGGIGTVPVGRVETGILRPGMVVTFAPVNITTEVKSVEMHHEALSEALPGDNVGFNVKNVSVKDIRRGNVCGDSKSDPPQEAAQFTSQVIILNHPGQISAGYSPVIDCHTAHIACKFAELKEKIDRRSGKKLEDNPKSLKSGDAAIVEMVPGKPMCVESFSQYPPLGRFAVRDMRQTVAVGVIKNVEKKSGGAGKVTKSAQKAQKAGK
# B3: GANAB (protein, UniProt Q14697 29-944, looked up)
# Neutral alpha-glucosidase AB: ITLAVDRSNFKTCEESSFCKRQRSIRPGLSPYRALLDSLQLGPDSLTVHLIHEVTKVLLVLELQGLQKNMTRFRIDELEPRRPRYRVPDVLVADPPIARLSVSGRDENSVELTMAEGPYKIILTARPFRLDLLEDRSLLLSVNARGLLEFEHQRAPRVSQGSKDPAEGDGAQPEETPRDGDKPEETQGKAEKDEPGAWEETFKTHSDSKPYGPMSVGLDFSLPGMEHVYGIPEHADNLRLKVTEGGEPYRLYNLDVFQYELYNPMALYGSVPVLLAHNPHRDLGIFWLNAAETWVDISSNTAGKTLFGKMMDYLQGSGETPQTDVRWMSETGIIDVFLLLGPSISDVFRQYASLTGTQALPPLFSLGYHQSRWNYRDEADVLEVDQGFDDHNLPCDVIWLDIEHADGKRYFTWDPSRFPQPRTMLERLASKRRKLVAIVDPHIKVDSGYRVHEELRNLGLYVKTRDGSDYEGWCWPGSAGYPDFTNPTMRAWWANMFSYDNYEGSAPNLFVWNDMNEPSVFNGPEVTMLKDAQHYGGWEHRDVHNIYGLYVHMATADGLRQRSGGMERPFVLARAFFAGSQRFGAVWTGDNTAEWDHLKISIPMCLSLGLVGLSFCGADVGGFFKNPEPELLVRWYQMGAYQPFFRAHAHLDTGRREPWLLPSQHNDIIRDALGQRYSLLPFWYTLLYQAHREGIPVMRPLWVQYPQDVTTFNIDDQYLLGDALLVHPVSDSGAHGVQVYLPGQGEVWYDIQSYQKHHGPQTLYLPVTLSSIPVFQRGGTIVPRWMRVRRSSECMKDDPITLFVALSPQGTAQGELFLDDGHTFNYQTRQEFLLRRFSFSGNTLVSSSADPEGHFETPIWIERVVIIGAGKPAAVVLQTKGSPESRLSFQHDPETSVLVLRKPGINVASDWSIHLR
# B4: HIST1H1D (protein, UniProt P16402 2-221, looked up)
# Histone H1.3: SETAPLAPTIPAPAEKTPVKKKAKKAGATAGKRKASGPPVSELITKAVAASKERSGVSLAALKKALAAAGYDVEKNNSRIKLGLKSLVSKGTLVQTKGTGASGSFKLNKKAASGEGKPKAKKAGAAKPRKPAGAAKKPKKVAGAATPKKSIKKTPKKVKKPATAAGTKKVAKSAKKVKTPQPKKAAKSPAKAKAPKPKAAKPKSGKPKVTKAKKAAPKKK
# B5: NFXL1 (protein, UniProt Q6ZNB6 1-911, looked up)
# NF-X1-type zinc finger …: MEASWRQVAGGRGRSRGRATAAPSGNGVHLRGAGGGREKGSVGAVPSGTSPGGVATTAAAGSRHSPAGSQALQTTAASELMSQKKFEEIKKANQAAARKLVEEQFSSSSEEGDEDFEGKQGKILANTFITYTTQTDGDTRELERTKQYVNEAFQAGAMTCLICIASVKRNQAVWSCSGCFCIFHMPCIQKWAKDSQFLVSSVTDDDFGKKDCPWPCPKCRFEYKRSETPSRYYCYCGKVEDPPLDPWLVPHSCGQVCEREFKPPCGHKCLLLCHPGPCPPCPKMVTTTCYCKKAKPIPRRCSAKEWSCQLPCGQKLLCGQHKCENPCHAGSCQPCPRVSRQKCVCGKKVAERSCASPLWHCDQVCGKTLPCGNHTCEQVCHVGACGECPRSGKRFCPCQKSKFSLPCTEDVPTCGDSCDKVLECGIHRCSQRCHRGPCETCRQEVEKHCRCGKHTKRMPCHKPYLCETKCVKMRDCQKHQCRRKCCPGNCPPCDQNCGRTLGCRNHKCPSVCHRGSCYPCPETVDVKCNCGNTKVTVPCGRERTTRPPKCKEQCSRPPTCHHTSQEKHRCHFGSCPPCHQPCQKVLEKCGHLCPAPCHDQALIKQTGRHQPTGPWEQPSEPAFIQTALPCPPCQVPIPMECLGKHEVSPLPCHAVGPYSCKRVCGRILDCQNHTCMKECHKVTKTDGCTGKNKAGPECLHCEEGCSKSRPLGCLHPCILRCHPGECPPCVQMLRIKCHCKITSLYVECRKITTADVNEKNLLSCCKNQCPKELPCGHRCKEMCHPGECPFNCNQKVKLRCPCKRIKKELQCNKVRENQVSIECDTTCKEMKRKASEIKEAEAKAALEEEKRRQQAELEAFENRLKGRRKKNRKRDEVAVELSLWQKHKYYLISVCGVVVVVFAWYITHDVN
# B6: NOP56 (protein, UniProt O00567 1-594, looked up)
# Nucleolar protein 56: MVLLHVLFEHAVGYALLALKEVEEISLLQPQVEESVLNLGKFHSIVRLVAFCPFASSQVALENANAVSEGVVHEDLRLLLETHLPSKKKKVLLGVGDPKIGAAIQEELGYNCQTGGVIAEILRGVRLHFHNLVKGLTDLSACKAQLGLGHSYSRAKVKFNVNRVDNMIIQSISLLDQLDKDINTFSMRVREWYGYHFPELVKIINDNATYCRLAQFIGNRRELNEDKLEKLEELTMDGAKAKAILDASRSSMGMDISAIDLINIESFSSRVVSLSEYRQSLHTYLRSKMSQVAPSLSALIGEAVGARLIAHAGSLTNLAKYPASTVQILGAEKALFRALKTRGNTPKYGLIFHSTFIGRAAAKNKGRISRYLANKCSIASRIDCFSEVPTSVFGEKLREQVEERLSFYETGEIPRKNLDVMKEAMVQAEEAAAEITRKLEKQEKKRLKKEKKRLAALALASSENSSSTPEECEEMSEKPKKKKKQKPQEVPQENGMEDPSISFSKPKKKKSFSKEELMSSDLEETAGSTSIPKRKKSTPKEETVNDPEEAGHRSGSKKKRKFSKEEPVSSGPEEAVGKSSSKKKKKFHKASQED
# B7: VIL1 (protein, UniProt P09327 2-827, looked up)
# Villin-1: TKLSAQVKGSLNITTPGLQIWRIEAMQMVPVPSSTFGSFFDGDCYIILAIHKTASSLSYDIHYWIGQDSSLDEQGAAAIYTTQMDDFLKGRAVQHREVQGNESEAFRGYFKQGLVIRKGGVASGMKHVETNSYDVQRLLHVKGKRNVVAGEVEMSWKSFNRGDVFLLDLGKLIIQWNGPESTRMERLRGMTLAKEIRDQERGGRTYVGVVDGENELASPKLMEVMNHVLGKRRELKAAVPDTVVEPALKAALKLYHVSDSEGNLVVREVATRPLTQDLLSHEDCYILDQGGLKIYVWKGKKANEQEKKGAMSHALNFIKAKQYPPSTQVEVQNDGAESAVFQQLFQKWTASNRTSGLGKTHTVGSVAKVEQVKFDATSMHVKPQVAAQQKMVDDGSGEVQVWRIENLELVPVDSKWLGHFYGGDCYLLLYTYLIGEKQHYLLYVWQGSQASQDEITASAYQAVILDQKYNGEPVQIRVPMGKEPPHLMSIFKGRMVVYQGGTSRTNNLETGPSTRLFQVQGTGANNTKAFEVPARANFLNSNDVFVLKTQSCCYLWCGKGCSGDEREMAKMVADTISRTEKQVVVEGQEPANFWMALGGKAPYANTKRLQEENLVITPRLFECSNKTGRFLATEIPDFNQDDLEEDDVFLLDVWDQVFFWIGKHANEEEKKAAATTAQEYLKTHPSGRDPETPIIVVKQGHEPPTFTGWFLAWDPFKWSNTKSYEDLKAELGNSRDWSQITAEVTSPKVDVFNANSNLSSGPLPIFPLEQLVNKPVEELPEGVDPSRKEEHLSIEDFTQAFGMTPAAFSALPRWKQQNLKKEKGLF
# B8: PATLI (protein, UniProt Q86TB9 1-770, looked up)
# Protein PAT1 homolog 1: MFRYESLEDCPLDEDEDAFQGLGEEDEEIDQFNDDTFGSGAVDDDWQEAHERLAELEEKLPVAVNEQTGNGERDEMDLLGDHEENLAERLSKMVIENELEDPAIMRAVQTRPVLQPQPGSLNSSIWDGSEVLRRIRGPLLAQEMPTVSVLEYALPQRPPQGPEDDRDLSERALPRRSTSPIIGSPPVRAVPIGTPPKQMAVPSFTQQILCPKPVHVRPPMPPRYPAPYGERMSPNQLCSVPNSSLLGHPFPPSVPPVLSPLQRAQLLGGAQLQPGRMSPSQFARVPGFVGSPLAAMNPKLLQGRVGQMLPPAPGFRAFFSAPPSATPPPQQHPPGPGPHLQNLRSQAPMFRPDTTHLHPQHRRLLHQRQQQNRSQHRNLNGAGDRGSHRSSHQDHLRKDPYANLMLQREKDWVSKIQMMQLQSTDPYLDDFYYQNYFEKLEKLSAAEEIQGDGPKKERTKLITPQVAKLEHAYKPVQFEGSLGKLTVSSVNNPRKMIDAVVTSRSEDDETKEKQVRDKRRKTLVIIEKTYSLLLDVEDYERRYLLSLEEERPALMDDRKHKICSMYDNLRGKLPGQERPSDDHFVQIMCIRKGKRMVARILPFLSTEQAADILMTTARNLPFLIKKDAQDEVLPCLLSPFSLLLYHLPSVSITSLLRQLMNLPQSAATPALSNPHLTAVLQNKFGLSLLLILLSRGEDLQSSDPATESTQNNQWTEVMFMATRELLRIPQAALAKPISIPTNLVSLFSRYVDRQKLNLLETKLQLVQGIR
# System: HCoV-OC43 gRNA and sgRNA
# Type: binding
# Conditions: for target (unweighted spectral count, OC43 Probe II) / background (unweighted spectral count, no-probe control): type n_48_v, 48 hpi; for target (unweighted spectral count, OC43 Probe II): OC43 Probe II capture on infected cells; for background (unweighted spectral count, no-probe control): no-probe control on infected cells
Molecule,"target (unweighted spectral count, OC43 Probe II)","background (unweighted spectral count, no-probe control)","target (unweighted spectral count) (OC43 Probe II, 12 hpi (type n_12_v), infected cells, tested against no-probe control)"
B1,5,1,
B2,5,1,
B3,5,1,
B4,,,5
B5,12,3,
B6,5,1,
B7,5,1,
B8,5,1,
